Laboratory results: patent US11932672B2, “Fermentation process” (Syngulon S.A., priority 2017, dated 2024)
Entries after “also recorded” stand apart in the source; their conditions may differ.

Experiments:
Candida species = conditions: cited from earlier work
[1] = test system: fungal microbial organism; conditions: cited from earlier work
[2] = test system: pathogenic Gram-positive and Gram-negative bacteria; conditions: cited from earlier work
bacteriocin B17 = assay: Resistance to B17 conferred by plasmid-expressed immunity gene (selection on plates containing B17); type: cell-based, BL21(DE3)
Source text: We have separated genes from B17 immunity structures and cloned these into vectors behind an inducible promoter (Ptac).
We have separated the genes from B17 immunity structures and cloned them into vectors behind an inducible promoter (Ptac).
We inserted the B17 McbG immunity structure gene and cloned the latter into vectors behind the weak constitutive promoter (P24). A second construct was generated with a P24 LacO hybrid promoter which is an inducible promoter repressed in the presence of lad and active in presence of IPTG.
The BL21(DE3) strain was transformed with vector pMcbG1.0 or pMcbG1.1 (see FIG. 3 or 4). After transformation, transformants were selected on plates containing B17. Isolated colonies were re-grown and the plasmid they contained was analyzed by gel electrophoresis after treatment with relevant restriction enzymes.

ColV = assay: Resistance to ColV conferred by plasmid-expressed immunity gene (vector selection marker); type: cell-based; conditions: gene expressed from plasmid pBACT5.0
Source text: (§1) The vector used is pBACT5.0 (FIG. 5, SEQ ID NO: 712).

bacteriocin C7 = assay: Resistance to C7 conferred by plasmid-expressed immunity gene (vector selection marker); type: cell-based; conditions: gene expressed from plasmid (pBACT2.0, pBACT5.0)
Source text: The vector used is pBACT2.0 (FIG. 6, SEQ ID NO: 713).
as §1

Molecule: Enterococcus faecalis peptide: Enterococcus faecalis peptide, SEQ ID NO: 1 (WLPPAGLLGRCGRWFRPWLLWLQSGAQYKWLGNLFGLGPK; listed as Enterococcus faecalis)
- neutralizing activity against Candida species (Candida species): neutralizing activity

Molecule: botrycidin AJ1316
- antifungal activities [1]: antifungal activities

B1: Ent35-MccV: hybrid bacteriocin: N-terminal glycine, Enterocin CRL35, three-glycine linker, C-terminal Microcin V, SEQ ID NO: 3 (protein)
chain: GKYYGNGVSCNKKGCSVDWGRAIGIIGNNSAANLATGGAAGWKSGGGASGRDIAMAIGTLSGQFVAGGIGAAAGGVAGGAIYDYASTHKPNPAMSPSGLGGTIKQKPEGIPSEAWNYAAGRLCNWSPNNLSDVCL
modifications: Hybrid bacteriocin Ent35-MccV
- antimicrobial activity [2]: displays antimicrobial activity

B2: McbE/F: pumps of the B17 immunity structure, construct pSyn2-McbE/F SEQ ID NO: 703 (protein, UniProt P05528 1-241; P05529 1-247, looked up)
Protein McbE: MVTLKMAIIFLMEQIRTPFSLIWTIMSPTVLFFFLHFNEIELHYGDTAWLGKQISWFVGYISFSVVLFNYCLYLVGRRESGFIATFVHNMDGRLLFIRSQLIASLIMSILYVFFFILVVLTGFQASPDYQIVMIILKSIYINAFMMVSLTFMASFRVTFQTASTIYSVLITVCMVSGIVSLKYNEGIVYWINQVNPIAIYSTILQSDQELSLMTIFFYSIMLIISIISALTFKTEPVWSSQ
Protein McbF: MTIPLLEINSLSFSYKVNLPPVFNNLSLKIEQGELIGLLGENPAGKTTLFNLIRGGVSNYEGTLKRNFSGGELVSLPQVINLSGTLRNEEVLDLICCFNKLTKKQAWTDVNHKWNDNFFIRYDKIRRKRTYTVSYGEKRWLIISLMVTLCKNARLFLLDEPTVGIDIQYRMMLWELINKITADGKTVFFSTHIFDELTRDKIPFYMLSKNSINRYSDMSDFIQSNNETTQKRHLLKKLWEQETDTWI
- toxicity of expression to the strain (bacteriocin B17; pSyn2-McbE/F under Ptac): toxic

B3: McbG: immunity to the bacteriocin B17, nucleic acid SEQ ID NO: 699 (protein, listed as Escherichia coli)
chain: MDIIEKRITKRHLSESELSGVNYYNCIFERIQLDNFNFRDCEFEKCRFVNCSIKNLKLNFFKLIDCEFKDCLLQGVNAADIMFPCTFSLVNCDLRFVDFISLRLQKSIFLSCRFRDCLFEETDLRKSDFTGSEFNNTEFRHSDLSHCDFSMTEGLDINPEINRILSIKIPQEAGLKILKRMGVVVGG
modifications: gene (1)..(564) McbG gene
- resistance to B17 (bacteriocin B17; gene expressed from plasmid, Ptac not induced, weak P24 promoter or pBACT2.0): sufficient to give the phenotype of resistance

B4: Cvi: immunity gene giving resistance to ColV, SEQ ID NO: 709 (protein, listed as Escherichia coli)
chain: MDRKRTKLELLFAFIINATAIYIALAIYDCVFRGKDFLSMHTFCFSALMSAICYFVGDNYYSISDKIKRRSYENSDSK
modifications: gene (1)..(237) Cvi
- resistance to ColV (ColV): give resistance

B5: MccE: immunity to the bacteriocin C7, nucleic acid SEQ ID NO: 700 (protein, listed as Escherichia coli)
chain: MAQKITPSKIVKHARELIIKGIESGDNSFVIFDVDGALERLEHYRCQLKSFFPNSSIAYSYKSNNLAQWCQIISGKGLYAEVCSVDEMNLAKRDGFNRIVFDGPLKKTSELLKAIEIGALIEVDNIDECKRLNELCKLHKLTCRIHLRLSHYYDDNLSRFGLSESEAINLLEMLISKSEYLILDGFHLHVGSNLPNAEKICKAVIQYHELILRYMPDDGTLNLGSGIPADSFSASSDNPTPCPEVFFSSIYDTIKNCFGTVCDKWNYIFEPGRHLVEDFGYFIGKVISTKNRYGVKVAQTNIGINWIPSIRNWDHSFTLFHNHNHISDDKSDEYIIAGFNCFECDCLFPSVILPSNLSDYLFSVRGCGAYDMQTGNQWTRNLYAVYTITNDVVNISRIHRRELDFRKYDVSLTPSGIKVNDEITLLYPALKYAEELYLLINQNKINFIKSMAWPAFVNNISDSVSFIEQSMIDNQNEKALILFIKYKTKIAGVVSFNIIDHANKTAYIGYWLGANFQGKGIVTNAINKLIQEYGDSGVIKRFVIKCIVDNKKSNATALRCGFTLEGVLQKAEILNGVSYDQNIYSKVIG
modifications: gene (1)..(1770) MccE gene
- resistance to bacteriocin C7 (bacteriocin C7): give resistance

B6: C-terminal part of MccE: C-terminal portion of MccE, SEQ ID NO: 701 (amino acid SEQ ID NO: 706) (protein)
chain: FRKYDVSLTPSGIKVNDEITLLYPALKYAEELYLLINQNKINFIKSMAWPAFVNNISDSVSFIEQSMIDNQNEKALILFIKYKTKIAGVVSFNIIDHANKTAYIGYWLGANFQGKGIVTNAINKLIQEYGDSGVIKRFVIKCIVDNKKSNATALRCGFTLEGVLQKAEILNGVSYDQNIYSKVIG
modifications: C-terminal part of MccE protein
- resistance to bacteriocin C7 (bacteriocin C7): sufficient to confer resistance; also recorded: give resistance
- resistance to bacteriocin C7 (bacteriocin C7; listed as truncated MccE): give resistance
